Results on 1 molecule are retold here after PMC9838878 (Science (New York, N.Y.), 2022).

In this assay the target is recombinant KIT-extracellular domain-Fc fragment fusion protein (KIT-ECD-Fc) (human, UniProt P10721 26-524). Nature of the assay: MST.
Chain of recombinant KIT-extracellular domain-Fc fragment fusion protein (KIT-ECD-Fc) (P10721 26-524): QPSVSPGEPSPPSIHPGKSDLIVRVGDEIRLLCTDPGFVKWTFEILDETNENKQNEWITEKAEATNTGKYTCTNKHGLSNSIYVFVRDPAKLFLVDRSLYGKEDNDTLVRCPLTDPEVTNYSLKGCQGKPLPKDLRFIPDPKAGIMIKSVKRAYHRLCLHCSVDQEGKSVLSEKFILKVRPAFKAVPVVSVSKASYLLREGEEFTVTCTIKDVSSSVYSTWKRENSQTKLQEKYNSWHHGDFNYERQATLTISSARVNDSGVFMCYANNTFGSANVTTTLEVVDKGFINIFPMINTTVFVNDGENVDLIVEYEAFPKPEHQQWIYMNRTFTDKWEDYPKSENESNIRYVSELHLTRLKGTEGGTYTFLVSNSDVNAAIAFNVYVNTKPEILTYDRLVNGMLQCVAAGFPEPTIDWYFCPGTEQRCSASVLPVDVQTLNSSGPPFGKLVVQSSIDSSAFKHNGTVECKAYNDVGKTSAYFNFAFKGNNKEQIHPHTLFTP

B1: meteorin-like (METRNL), protein added as ligand (ligand, human, UniProt Q641Q3 46-311, looked up)
chain: QYSSDRCSWKGSGLTHEAHRKEVEQVYLRCAAGAVEWMYPTGALIVNLRPNTFSPARHLTVCIRSFTDSSGANIYLEKTGELRLLVPDGDGRPGRVQCFGLEQGGLFVEATPQQDIGRRTTGFQYELVRRHRASDLHELSAPCRPCSDTEVLLAVCTSDFAVRGSIQQVTHEPERQDSAIHLRVSRLYRQKSRVFEPVPEGDGHWQGRVRTLLECGVRPGHGDFLFTGHMHFGEARLGCAPRFKDFQRMYRDAQERGLNPCEVGTD
Regarding B1, the binding result is “binds”.
